Measured values reported in US9029340.

Target: prostate-specific membrane antigen (PSMA) (human) (UniProt Q04609)
Experiment: flow cytometry; J591 (1:5000) plus Alexa488 secondary on PC3-PIP cells, PSMA-negative PC3-Flu cells as reference

Sequence of UniProt Q04609 (Q04609 whole entry): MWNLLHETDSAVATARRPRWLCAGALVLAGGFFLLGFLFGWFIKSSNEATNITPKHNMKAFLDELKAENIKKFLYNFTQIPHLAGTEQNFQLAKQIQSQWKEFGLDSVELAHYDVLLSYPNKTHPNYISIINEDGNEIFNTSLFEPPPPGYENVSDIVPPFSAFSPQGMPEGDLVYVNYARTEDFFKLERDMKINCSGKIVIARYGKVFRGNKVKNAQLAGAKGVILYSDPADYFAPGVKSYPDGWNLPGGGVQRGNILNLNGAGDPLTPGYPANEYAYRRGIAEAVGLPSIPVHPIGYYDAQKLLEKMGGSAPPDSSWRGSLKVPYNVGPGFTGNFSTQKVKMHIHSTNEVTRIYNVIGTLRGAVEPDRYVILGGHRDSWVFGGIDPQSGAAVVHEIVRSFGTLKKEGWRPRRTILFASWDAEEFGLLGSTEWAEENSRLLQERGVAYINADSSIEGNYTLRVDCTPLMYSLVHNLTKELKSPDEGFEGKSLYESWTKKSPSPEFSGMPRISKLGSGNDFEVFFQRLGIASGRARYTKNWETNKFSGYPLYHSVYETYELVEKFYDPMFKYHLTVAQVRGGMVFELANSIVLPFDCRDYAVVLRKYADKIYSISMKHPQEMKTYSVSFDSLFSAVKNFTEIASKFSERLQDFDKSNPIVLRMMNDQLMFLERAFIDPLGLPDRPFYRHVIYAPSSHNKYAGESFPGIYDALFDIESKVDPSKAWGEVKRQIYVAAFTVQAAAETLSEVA

percent of cells stained positive: 48.2%
Substance: anti-PSMA (J591) antibody
